Assay results reported in patent US20140287419A1, “Compositions Having Dicamba Decarboxylase Activity and Methods of Use” (priority 2013, published 2014).
Entries after “also recorded” stand apart in the source; their conditions may differ.

B1: 25 (protein, listed as Acidovorax avenae)
chain: MAQGKIGLEEHFAIPETLQDSAGFVPGDYWKELSLRLLDIHERRLREMDENGMEMMILSLNAPAVQAIPDTKKAVEIAVRANDFLAEQVARRPDRFQAFAALPMQDPDLATRELERCMQDLGFRGALVNGFSQVGTPENVVYYDAPQYGDFWAAVERLDAPFYLHPRNPIASWAQIYQGHPWLMGPTWAFAQETAVHALRLMASGLFDRHPGLRIILGHLGEGLPYNMWRVDHRNAWVDMPKGYPAKRKLCDYFHENFYLTTSGNFRTQTLIDALLEVGADRILFSTDWPFENVDHAAHWFDDAAISEADRLKIGRTNALSLFKLPQG
B2: 2 (protein, listed as Serratia sp.)
chain: MAKIICLEEHTLDKALVMASMPAALEQAPFLSDWGKTVTDGNLPDRSRPQIEKNDLINIKGADIGRGRLDDMDVAGITMQVLSVGGFPHLISAAEGVDLNRAANDRLADAVNAHPDRFAAFATLPWAQPDSAEKELERAVKELGFKGALLNGRPSTHFLDHPDYDGLLARFNALGVPLYLHPGLPVRSVQQAYYGGFSDEVTARLSMFGWGWHHEAGIHLLRLILSGAFDKYPNLQVISGHWGEMLPFWLQRLDDSLPQAATGLRRTIAQTFKEQVYVTPSGMLTLPHFQFIYALLGAERIIFSVDYPYQTLDGVKAFIQSLPVPEEAKEAIAFRNAERLLGLTS
B3: 27 (protein, listed as Aspergillus oryzae)
chain: MALGKIALEEAFALPRFEEKTRWWASLFSTDAETHVKEITDINKIRIEHADKHGVGYQILSYTAPGVQDIWDPVEAQALAVEINDYIAEQVRVNPDRFGAFATLSMHNPKEAADELRRCVEKYGFKGALVNDTQRAGPDGDDMIFYDNADWDIFWQTCTELDVPFYMHPRNPTGTIYEKLWADRKWLVGPPLSFAHGVSLHVLGMVTNGVFDRHPKLQIIMGHLGEHVPFDMWRINHWFEDRKKLLGLAETCKKTIRDYFAENIWITTSGHFSTTTLNFCMAEVGSDRILFSIDYPFETFSDACEWFDNAELNGTDRLKIGRENAKKLFKLDSYKDSSA
B4: SEQ ID NO:95: Alpha-Amino-Beta-Carboxymuconate-Epsilon-Semialdehyde-Decarboxylase, Pseudomonas fluorescens (protein, listed as Pseudomonas fluorescens)
chain: MAKKPRIDMHSHFFPRISEQEAAKFDANHAPWLQVSAKGDTGSIMMGKNNFRPVYQALWDPAFRIEEMDAQGVDVQVTCATPVMFGYTWEANKAAQWAERMNDFALEFAAHNPQRIKVLAQVPLQDLDLACKEASRAVAAGHLGIQIGNHLGDKDLDDATLEAFLTHCANEDIPILVHPWDMMGGQRMKKWMLPWLVAMPAETQLAILSLILSGAFERIPKSLKICFGHGGGSFAFLLGRVDNAWRHRDIVREDCPRPPSEYVDRFFVDSAVFNPGALELLVSVMGEDRVMLGSDYPFPLGEQKIGGLVLSSNLGESAKDKIISGNASKFFNINV
B5: 28 (protein, listed as Sphingomonas paucimobilis)
chain: MARLIATEEAVTFQPVVDALRAHSRTDDASLDMILVRDVYGDEPARPAMIGRLSDVTGERLAEMDSNGVDMHLLSLTAPGVQMFDAETGTRLARIANDLMAQTVAANPTRFAGLGTFAPQDPASAAREIERVATQLRLNGLVINSHTNDLYYDDPFFHPVFEAIEASGLALYIHPRAPSKQIDRAFRDYGMNSAIWGYGIETSTNAVRMILSGLFDRFPRLKIVLGHMGEAIPFWLWRLDYMHGNATTFGGAPKLKLKPSEYFRRNFAITTSGVESHAALRYSIEVLGPENVMWAIDYPYQPMAPAVQFIRTAPIPEDVKAMVAGGNAARIFRIT
B6: 32 (protein)
chain: MARIIAIEEHFLDLDIARASRPEAERLSPAFAAAYGAGQGYNYSPAPEVLLDLEEGRVADMDAHGISMQVLSSLSTQQLPADVAVELVRKVNDRAAAAVAARPDRFAAFAALPTTVPEAAADELDRAVGELGFVGSMINGRTGDAFLDAPRFDAVLRRSAELRVPVYLHPGVPPVETSRSNYEGGLDPIVTARLQTSAWGWHVETGIHFLHLVLAGVFDRYPDLQVILGHWGEMVPFFLERIEEALPQQITHLDRPVGAYFRENAHITPSGMFSQAQLQFCVETVGIERIMFSVDYPFLGNDGAEAFLRQANLPPLATEKIAHLNAERLLALPS
modifications: Streptomyces violaceusniger
B7: 26 (protein, listed as Variovorax paradoxus)
chain: MATHMAPMKNKIALEEHFAIDLTIADSQVYARPEVWQGLKSNLLDFEQQRLEKMDEWGTEFSILSLNSPAVQGIPDAKRAIEVAQRANDVLAEQVKRHPTRFGGFAALPMQDPEASARELERCVNQLGFHGFLVNGFSQVGDENIVVYYDDARFNDFWTAAAALKKPFYMHPRDPLLAREPIYDGAHWLTGPTWAFAMETAIHALRLMSSGMFDRHPALQMILGHFGEGIPFNIWRVDHILRKGRRGMPCDKEIGEYLRSNVHITTSGNFRTPTLLSTMLEVGSDRIMYSVDYPFEKHEDAARWFDTCEISENDRQKIGRDNARKLFGLK
B8: SEQ ID NO:100: 4-Oxalomesaconate hydratase, Reinekea blandensis MED297 (protein, listed as Reinekea blandensis)
chain: MAIIDCHGHYTTTPKGVEDYRNAQKAAVAKDPSFKGEKGQVVVSDDEIRESIENNQLKMQRERGTDLTIFSPRASWMGHHIGNEYTSQFWTEHQNDLIRRVCDLFPKNFAPVAQLPQSPGVDPAKSVPEIVRTVEQMGFIGINLNPDPSGGYWKDTSLADRAFYPIYEKMVEYDIPAMIHVSAACNDCFHTTGSHYLGADTTGFQQLIMSDVFKDFPSLKIIIPHGGGAVPYHWGRFRGLMQDQGYAPLEESALKNIYFDTCVYHQRGIDLLLDIVPTQNILFASEMIGAVRGIDPETGHNFDDTKRYIDNNTALNAEEKAMIFEGNARRVFSRLKTD
B9: 31 (protein, listed as Agrobacterium sp.)
chain: MAQGKVALEEHFAIPETLQDSAGFVPGDYWKELQHRLLDIQDTRLKLMDAHGIETMILSLNAPAVQAIPDKTKAIEIARRANDVLAEECAKRPDRFLAFAALPLQDPDAATEELQRCVNDLGFVGALVNGFSQEGDGQTPLYYDLPQYRPFWGEVEKLDVPFYLHPRNPLPQDSRIYDGHPWLLGPTWAFAQETAVHALRLMASGLFDEHPRLNIILGHMGEGLPYMMWRIDHRNAWVKLPPRYPAKRRFMDYFNENFHITTSGNFRTQTLIDAILEIGADRILFSTDWPFENIDHASDWFNATSIAEADRVKIGRTNARRLFKLDGA
B10: 29 (protein, listed as Pseudovibrio sp.)
chain: MAGRRDFLRKSVAAGVGLTAAAQLSAGGAQATVPDTSNIPLITLEEHFTTPELQSKNTSGDKRLFSGGGSRPELLDVGAGRIADMDEAGIDIQVLSTVTPGASKITGAEGVEFTRKFNTWIAEEVIAAYPNRFRAFATLPLSSPEAAADELERSVREYGFVGTMTYGPIDGKFLDHADYAPLLARAEALGVPIYIHPNWPSPTAMQAYYDGLGDDLTSRILSGPGYGWHQEIAVQCLRLIVGGVFDRFPNLQIVVGHMGEGLPFYYWRVGEDLDRIAQKRLQKPVQQYFHDNLWITTSAFFRDELLNLALATMGEDRVMFSVDYPMASAKVGADWLRAADIPLATKEKIGSKNAMKLLGIDKI
B11: 24 (protein)
chain: MALGKVVLEEAYERPNMKEKSNHEAGLYIAPNDRPRYMRQINDINQERLKLADAHGVGYTIISLTVPGIQGIFDKTEAERVATETNNWAAEQIKNHRDRLGAFACLSMHDPAQAANELRRCVQELGFHGALLCSFQHAGPDGETYLFYDQPKYDVFWKALTELDVPLYIHPAAPTGSILERLYAQRPALIGPPLSFANDVSLHTLGIISNGVFDRFPNLKIIIGHLGEHIPFDFWRIDHWFRDVKKPIADEEGRVMAQKSLYHYFKHNIWLTTSGHFSTPTLKYVVNEIGVDRVLFSVDYPYETTESGCNWWDHDKDAIVEAVGGVDNYYAIGRENAKKLLRLDKFHDSDAR
modifications: Aspergillus niger
B12: SEQ ID NO: 116 (protein)
chain: MAQGKVALEEHFAIPETLQDAAGFVPGDYWKELQHRLLDIQDRRVRLMDEHGIETMILSLNAPAVQAIADSTRANETARRANDFLAEQVAKQPTRFRGFAALPMQDPELAARELERCVKELGFVGALVNGFSQDNRSAVPLYYDMAQYWPFWETVQALDVPFYLHPRNPLPSDARIYDGHAWLLGPTWAFGQETAVHALRLMGSGLFDKYPALKIILGHMGEGLPYSMWRIDHRNAWIKTTPKYPAKRKIVDYFNENFYLTTSGNFRTQTLIDAILEIGADRILFSTDWPFENIDHAADWFENTSISEADRKKIGWGNAQNLFKLNR
modifications: Dicamba decarboxylase variant clone DC.30.007
B13: 30 (protein)
chain: MARGKIALEEHVSTPENNRLWDSTGEANRNGSEYMQDVERRLLDRSIQLEEMAQRNIDHVILSLTSPGAQSILDKAKAVSFARDTNDFIVDNYVKPNPDKFSAFATLALQNPEAAAEELERAVKKLGMKGALINGYTNVKDSEHGLYLDDESMLVFWDKVNELNVPVYLHPREPLEGPARGIYTGYESLIGSAWGFAQETAVHAIRLMMSGLFDRYPNLNLVLGHLGEGLVHMLPRTQHRLYRQRFGCGLGKAEKPLMHYLQNNFIVTTSGHFNTHSLNNAIEVMGADRVMFSVDYPYEDIHQACDWFDPLEMDEGLKEKIAWGNASRVFNIK
modifications: Enterobacter aerogenes

Legend:
[1] = 14C assay with IPTG-induced recombinant E. coli cells (14CO2 capture from [14C]-carboxyl-labeled dicamba); settings: for Dicamba Decarboxylase Activity: IPTG-induced recombinant E. coli cells, [14C]-carboxyl-labeled dicamba, 14CO2 capture; for Enzymatic Detection level: dicamba decarboxylation activity of the protein of the given SEQ ID NO
[2] = Dicamba decarboxylation activity of computationally designed protein variants; settings: native protein or designed variant versus parent

| Molecule | Dicamba Decarboxylase Activity [1] | Enzymatic Detection level [1] | Dicamba Decarboxylase Activity [2] |
| --- | --- | --- | --- |
| B1 | Low | Low | – |
| B2 | High | High | – |
| B3 | No | No | – |
| B4 | – | – | not active for dicamba decarboxylation; also recorded: Neither of the native proteins have dicamba decarboxylase activity |
| B5 | High | High | – |
| B6 | High | High | – |
| B7 | High | High | – |
| B8 | – | – | Neither of the native proteins have dicamba decarboxylase activity |
| B9 | High | High | – |
| B10 | No | No | – |
| B11 | Low | Low | – |
| B12 | – | – | improved dicamba decarboxylase activity |
| B13 | High | High | – |
